Data from article PMC4005659, “TcaR–ssDNA complex crystal structure reveals new DNA binding mechanism of the MarR family proteins”.

Biological target: TcaR (Staphylococcus epidermidis RP62A (ATCC …, UniProt A0A0H2VJZ8 1-151))
Test: X-ray crystallography; 1:1 TcaR dimer:ssDNA; 40% ethylene glycol, 0.1 M Tris pH 7.0; 3.6 A; EMSA: 20 mM Tris-HCl pH 8.0, 150 mM KCl, 0.1 mM MgCl2, 0.05 mM EDTA, 12.5% glycerol, 0.1 mM DTT, 1 mg/ml BSA, 15 min, room temperature; ssDNA 12 uM, TcaR 2-24 uM
Details: protein: recombinant; tags: N-terminal His6; chain copies: 2; single strand

**Q.** Does CGCAGCGCGCAGCCCTA (ssDNA) [17-mer GC-rich ssDNA] bind?
**A.** Result: binds
